Key:
[1] = Hydrophobic interaction chromatography (HIC); assay type: physicochemical; conditions: butyl HIC column, FIG. 4
Experimental: The samples are eluted using an inverted gradient from mobile phase A to 50 mM sodium phosphate, pH 7.0/isopropanol (80:20 v/v) (mobile phase B). The elution is followed by recording the A280 nm as a function of time, the data is then exported and analyzed using the Empower software.
(§1) Developability characteristics for various mutants were performed as in Bailly Et al., Predicting Antibody Developability Profiles Through Early Stage Discovery Screening, MABS 12 (1): e1743053 (2020) (doi: 10.1080/19420862.2020.17430530), which is incorporated herein by reference in its entirety. Various methods used may be found herein under General Methods.

[2] = Drug antibody ratio (DAR) of ADC by MS / HIC; assay type: physicochemical
Experimental: A 100 mM solution of dehydroascorbic acid (8.0 equiv.) in water was added slowly and the solution was mixed at room temperature for 4-10 hours or until completion (monitored by reverse phase liquid chromatography (RP-LC) and sodium dodecyl sulfate capillary electrophoresis (CE-SDS)). A 20 mg/mL solution of linker-payload (3.0 equiv.) in DMSO was added and the conjugation was incubated at room temperature for 2 hours (monitored by Quadrupole time-of-flight (QTOF) mass spectrometry (MS)) before addition of L-cysteine (5 equiv., 50 mM in water) to quench residual linker-payload. […] The ADC was brought to the final desired concentration using Sartorius Vivacell 70 Centrifugal Concentrators and Amicon® Ultra Centrifugal Filters.
The control antibody profile is the unconjugated antibody.

[3] = UP-SEC aggregation; assay type: physicochemical
Experimental: as §1

[4] = Non-reducing CE-SDS; assay type: physicochemical
Experimental: as §1

[5] = Rat PK of αTROP2 MMAE ADC (tAb, cAb, released MMAE); assay type: in vivo, Wistar Hannover Rats; conditions: 5 mg/kg IV, up to 14 days, LLOQ […]
Experimental: Plasma concentrations of payload conjugated anti-TROP2 antibody (cAb), total antibody (tAb), and released payload were measured up to 14 days post dose.

[6] = tested on: BxPC3 pancreatic cancer cells; test: In vivo anti-tumor efficacy in BxPC3 mouse model; parameters: species or system BALB/c nude mice; conditions: dose response, IV single dose, FIG. 14
Experimental: Experimental protocol: 7-8 week old female BALB/c nude mice were purchased from Gempharmatech Co., Ltd. ([…]). […] Mouse body weights and tumors were measured twice weekly, and tumor volumes calculated using the formula V=0.5 [a*b2]; where a and b are the long and short diameters of the tumor, respectively. 110 mice were assigned to 11 groups of 10 mice each using a computer-generated randomization procedure to minimize tumor volume variance across groups. Treatments were started when tumors reached an average size of 200 mm^3. PBS and the MMAE conjugates were dosed intravenously (IV) at 2 mg/kg according to Table 25.
Mouse body weights and tumors were measured twice weekly, and tumor volumes calculated using the formula V=0.5 [a*b2]; where a and b are the long and short diameters of the tumor, respectively. 70 mice were assigned to 7 groups of 10 mice each using a computer-generated randomization procedure to minimize tumor volume variance across groups. Treatments were started when tumors reached an average size of 200 mm^3. PBS, a control mAb, and bioconjugate were dosed intravenously (IV) according to Table 26.

B1: αTROP2 (HC:BSM-YTE-S375C) (LC:BSM-Y53D): HC SEQ ID NO: 20 or 90; LC SEQ ID NO: 22 (antibody)
heavy: QVQLLQSGSELKKPGASVKVSCKASGYTFTNYGMNWVRQAPGQGLKWMGWINTYTGEPTYTDDFKGRFSFSLDTSVSQAYLQISSLKAEDTAVYYCARGGFGSSYWYFDVWGQGTLVTVSSASTKGPSVFPLAPSSKSTSGGTAALGCLVKDYFPEPVTVSWNSGALTSGVHTFPAVLQSSGLYSLSSVVTVPSSSLGTQTYICNVNHKPSNTKVDKKVEPKSCDKTHTCPPCPAPELLGGPSVFLFPPKPKDTLYITREPEVTCVVVDVSHEDPEVKFNWYVDGVEVHNAKTKPREEQYNSTYRVVSVLTVLHQDWLNGKEYKCKVSNKALPAPIEKTISKAKGQPREPQVYTLPPSRDELTKNQVSLTCLVKGFYPCDIAVEWESNGQPENNYKTTPPVLDSDGSFFLYSKLTVDKSRWQQGNVFSCSVMHEALHNHYTQKSLSLSPGK
light: DIQLTQSPSSLSASVGDRVTITCKASQDVSIAVAWYQQKPGKAPKLLIYSASDRYTGVPSRFSGSGSGTDFTLTISSLQPEDFATYYCQQHYITPLTFGPGTKVEIKRTVAAPSVFIFPPSDEQLKSGTASVVCLLNNFYPREAKVQWKVDNALQSGNSQESVTEQDSKDSTYSLSSTLTLSKADYEKHKVYACEVTHQGLSSPVTKSFNRGEC
modifications: YTE Fc mutations
- HIC peak elution [1]: 24.14 fraction

B2: αTROP2 (HC: BSM-YTE-S375C-MMAE)(LC: BSM-Y53D) (conjugate)
heavy: B1 heavy
light: B1 light
- DAR ([2]; Table 22): 1.7
- DAR ([2]; Table 23): 1.7
- % HMW (SEC) ([3]; Table 22): 4.33%
- % HMW (SEC) ([3]; Table 23): 4.33%

B3: ADC 1: αTROP2 (HC:BSM-YTE-S375C) (LC:BSM-Y53D) conjugated to MP-AA-PABC-MMAE (conjugate)
heavy: B1 heavy
light: B1 light
- unconjugated antibody ([2]; by MS): unconjugated antibody (1.2%)
- Purity by CE-SDS NR [4]: 94.7%
- Purity by UP-SEC [3]: 96.4%
- unconjugated MMAE in the plasma [5]: no detectable
- tumor volume [6]: effective at reducing tumor volume

From patent publication US20240358847A1, “TROP2 BINDERS AND CONJUGATES THEREOF” (MERCK SHARP & DOHME LLC, priority 2023, published 2024)
